Biological target: Fc-tagged human angiotensin-converting enzyme 2 (hACE2) (human) (UniProt Q9BYF1)
Assay: BLI

Question: For “6× His-tagged S1 protein of SARS-CoV-2 Delta (B.1.617.2) variant (domain or fragment)”, which Kd is on record?
Answer: 5.03 nM

Question: For “6× His-tagged S1 protein of SARS-CoV-2 Omicron (B.1.1.529) variant (domain or fragment)”, which Kd is on record?
Answer: 7.4 nM

Question: Which Kd does the source give for “6× His-tagged S1 protein of SARS-CoV-2 Kappa (B.1.617.1) variant (domain or fragment)” here?
Answer: 4.85 nM
